Measured values reported in patent US10597674B2, “HPPD variants and methods of use” (BASF Agricultural Solutions Seed, US LLC, priority 2015, dated 2020).

System: transgenic soybean T0 events
Assay: Additional greenhouse trials of T0 soybean events, leaf damage score 0-100 as percentiles
Assay type: in vivo
Details: Cmpd. 1 300 g AI/ha, five days; for leaf damage score, Interquartile range: 75th minus 25th percentile; for leaf damage score, 25th percentile: scale 0 (no damage) to 100 (complete bleaching); for leaf damage score, 75th percentile / leaf damage score, 90th percentile / leaf damage score, Median: scale 0-100
From the text: In additional greenhouse trials, 21 to 94 independent T0 soybean events per construct containing an exemplary mutant HPPD polypeptide were sprayed with the HPPD inhibitor herbicide Cmpd. […] Five days after the application, the leaf damaged area due to the HPPD inhibitor herbicide is scored in a scale from 0 (no damage) to 100 (complete bleaching). Under those conditions, the wild-type plants were completely bleached and their damage scores were in the 95-100 range.
Table 9 presents the distribution of the HPPD inhibitor herbicide damage score data as percentile for exemplary mutant HPPD inhibitor herbicide tolerant polypeptides (SEQ ID NOs). The percentiles normalize ranks of the damage score from an individual plant in a population. […] The median is the 50th percentile. Half the values had higher damage scores; half had lower damage scores. […] The difference between the 75th and 25th percentile is called the interquartile range and a marker to quantify scattering in the population. All constructs had only one single cassette insertion in the soybean genome.
In Table 9, the constructs were ranked based on injury scores according to the 75th percentile, from smallest to highest score. All exemplary HPPD polypeptide variants are better in all percentile analyses than the prior art mutant HPPD polypeptide (WO2014/043435) corresponding to SEQ ID NO:2 in this invention. The scoring of the prior art mutant HPPD polypeptide (WO2014/043435) corresponding to SEQ ID NO:2 in this invention is listed in the bottom row of Table 9.

B1: SEQ ID NO: 42: mutant HPPD polypeptide: A204T P268G T270E E335P G336D N337S A340V I345V (protein)
chain: MADLYENPMGLMGFEFIEFASPTPGTLEPIFEIMGFTKVATHRSKNVHLYRQGEINLILNNEPNSIASYFAAEHGPSVCGMAFRVKDSQKAYNRALELGAQPIHIDTGPMELNLPAIKGIGGAPLYLIDRFGEGSSIYDIDFVYLEGVERNPVGAGLKVIDHLTHNVYRGRMVYWANFYEKLFNFREARYFDIKGEYTGLTSKTMSAPDGMIRIPLNEESSKGAGQIEEFLMQFNGEGIQHVAFLTDDLVKTWDALKKIGMRFMTAPGDEYYEMLEGRLPDHGEPVDQLQARGILLDGSSVEGDKRLLLQIFSETLMGPVFFEFIQRKGDDGFGPDSFKVLFESVERDQVRRGVLTAD
modifications: mutant HPPD polypeptide
notes: mutant HPPD polypeptide: A204T P268G T270E E335P G336D N337S A340V I345V
leaf damage score, Interquartile range: 10.0
leaf damage score, 25th percentile: 10.0
leaf damage score, 75th percentile: 20.0
leaf damage score, 90th percentile: 75.0
leaf damage score, Median: 15.0

B2: SEQ ID NO: 21: mutant HPPD polypeptide: E335P G336H N337S (protein)
chain: MADLYENPMGLMGFEFIEFASPTPGTLEPIFEIMGFTKVATHRSKNVHLYRQGEINLILNNEPNSIASYFAAEHGPSVCGMAFRVKDSQKAYNRALELGAQPIHIDTGPMELNLPAIKGIGGAPLYLIDRFGEGSSIYDIDFVYLEGVERNPVGAGLKVIDHLTHNVYRGRMVYWANFYEKLFNFREARYFDIKGEYTGLTSKAMSAPDGMIRIPLNEESSKGAGQIEEFLMQFNGEGIQHVAFLTDDLVKTWDALKKIGMRFMTAPPDTYYEMLEGRLPDHGEPVDQLQARGILLDGSSVEGDKRLLLQIFSETLMGPVFFEFIQRKGDDGFGPHSFKALFESIERDQVRRGVLTAD
modifications: mutant HPPD polypeptide
notes: mutant HPPD polypeptide: E335P G336H N337S
leaf damage score, Interquartile range: 15.0
leaf damage score, 25th percentile: 10.0
leaf damage score, 75th percentile: 25.0
leaf damage score, 90th percentile: 35.0
leaf damage score, Median: 15.0

B3: SEQ ID NO: 9: mutant HPPD polypeptide: E335P G336D N337S I345V (protein)
chain: MADLYENPMGLMGFEFIEFASPTPGTLEPIFEIMGFTKVATHRSKNVHLYRQGEINLILNNEPNSIASYFAAEHGPSVCGMAFRVKDSQKAYNRALELGAQPIHIDTGPMELNLPAIKGIGGAPLYLIDRFGEGSSIYDIDFVYLEGVERNPVGAGLKVIDHLTHNVYRGRMVYWANFYEKLFNFREARYFDIKGEYTGLTSKAMSAPDGMIRIPLNEESSKGAGQIEEFLMQFNGEGIQHVAFLTDDLVKTWDALKKIGMRFMTAPPDTYYEMLEGRLPDHGEPVDQLQARGILLDGSSVEGDKRLLLQIFSETLMGPVFFEFIQRKGDDGFGPDSFKALFESVERDQVRRGVLTAD
modifications: mutant HPPD polypeptide
notes: mutant HPPD polypeptide: E335P G336D N337S I345V
leaf damage score, Interquartile range: 5.0
leaf damage score, 25th percentile: 10.0
leaf damage score, 75th percentile: 15.0
leaf damage score, 90th percentile: 19.0
leaf damage score, Median: 10.0

B4: SEQ ID NO: 45: mutant HPPD polypeptide: P268G T270E T315R E335P G336D N337S A340V I345V (protein)
chain: MADLYENPMGLMGFEFIEFASPTPGTLEPIFEIMGFTKVATHRSKNVHLYRQGEINLILNNEPNSIASYFAAEHGPSVCGMAFRVKDSQKAYNRALELGAQPIHIDTGPMELNLPAIKGIGGAPLYLIDRFGEGSSIYDIDFVYLEGVERNPVGAGLKVIDHLTHNVYRGRMVYWANFYEKLFNFREARYFDIKGEYTGLTSKAMSAPDGMIRIPLNEESSKGAGQIEEFLMQFNGEGIQHVAFLTDDLVKTWDALKKIGMRFMTAPGDEYYEMLEGRLPDHGEPVDQLQARGILLDGSSVEGDKRLLLQIFSERLMGPVFFEFIQRKGDDGFGPDSFKVLFESVERDQVRRGVLTAD
modifications: mutant HPPD polypeptide
notes: mutant HPPD polypeptide: P268G T270E T315R E335P G336D N337S A340V I345V
leaf damage score, Interquartile range: 21.3
leaf damage score, 25th percentile: 5.0
leaf damage score, 75th percentile: 26.3
leaf damage score, 90th percentile: 67.5
leaf damage score, Median: 15.0

B5: SEQ ID NO: 30: mutant HPPD polypeptide: P268S T270S E335P G336H N337S A340V I345K (protein)
chain: MADLYENPMGLMGFEFIEFASPTPGTLEPIFEIMGFTKVATHRSKNVHLYRQGEINLILNNEPNSIASYFAAEHGPSVCGMAFRVKDSQKAYNRALELGAQPIHIDTGPMELNLPAIKGIGGAPLYLIDRFGEGSSIYDIDFVYLEGVERNPVGAGLKVIDHLTHNVYRGRMVYWANFYEKLFNFREARYFDIKGEYTGLTSKAMSAPDGMIRIPLNEESSKGAGQIEEFLMQFNGEGIQHVAFLTDDLVKTWDALKKIGMRFMTAPSDSYYEMLEGRLPDHGEPVDQLQARGILLDGSSVEGDKRLLLQIFSETLMGPVFFEFIQRKGDDGFGPHSFKVLFESKERDQVRRGVLTAD
modifications: mutant HPPD polypeptide
notes: mutant HPPD polypeptide: P268S T270S E335P G336H N337S A340V I345K
leaf damage score, Interquartile range: 5.0
leaf damage score, 25th percentile: 10.0
leaf damage score, 75th percentile: 15.0
leaf damage score, 90th percentile: 25.0
leaf damage score, Median: 15.0

B6: SEQ ID NO: 44: mutant HPPD polypeptide: R213L P268G T270E E335P G336D N337S A340V I345V (protein)
chain: MADLYENPMGLMGFEFIEFASPTPGTLEPIFEIMGFTKVATHRSKNVHLYRQGEINLILNNEPNSIASYFAAEHGPSVCGMAFRVKDSQKAYNRALELGAQPIHIDTGPMELNLPAIKGIGGAPLYLIDRFGEGSSIYDIDFVYLEGVERNPVGAGLKVIDHLTHNVYRGRMVYWANFYEKLFNFREARYFDIKGEYTGLTSKAMSAPDGMILIPLNEESSKGAGQIEEFLMQFNGEGIQHVAFLTDDLVKTWDALKKIGMRFMTAPGDEYYEMLEGRLPDHGEPVDQLQARGILLDGSSVEGDKRLLLQIFSETLMGPVFFEFIQRKGDDGFGPDSFKVLFESVERDQVRRGVLTAD
modifications: mutant HPPD polypeptide
notes: mutant HPPD polypeptide: R213L P268G T270E E335P G336D N337S A340V I345V
leaf damage score, Interquartile range: 11.3
leaf damage score, 25th percentile: 10.0
leaf damage score, 75th percentile: 21.3
leaf damage score, 90th percentile: 70.0
leaf damage score, Median: 15.0
